Measurements published in the supplement of paper PMC5998384.

How the values were obtained:
HeLa Kyoto [1] = assay: thermal stability score vs G1/S (z-score of summed log2 fold changes over temperatures); higher = more thermally stable than in G1/S
HeLa Kyoto [2] = assay: solubility change mitosis vs G1/S (difference of NP-40 vs SDS log2 ratios) (log2 ratio difference); higher = more soluble in mitosis
HeLa Kyoto [3] = assay: solubility in G1/S (NP-40 vs SDS abundance) (log2 ratio); higher = more soluble; conditions: cell cycle stage: G1/S
[4] = cell cycle stage: early G1 (4.5 h after nocodazole release)
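For solubility change mitosis vs G1/S (difference of NP-40 vs SDS log2 ratios) in this document: synchronized HeLa Kyoto cells (double thymidine block for G1/S, nocodazole release for mitosis), protein amounts in NP-40 versus SDS lysates quantified by mass spectrometry, three biological replicates.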
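For solubility in G1/S (NP-40 vs SDS abundance) in this document: HeLa Kyoto cells arrested at G1/S by double thymidine block, proteins quantified by TMT10plex mass spectrometry in mild NP-40 versus SDS extracts, three biological replicates.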
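For thermal stability score vs G1/S (z-score of summed log2 fold changes over temperatures) in this document: synchronized HeLa Kyoto cells, proteins quantified by TMT10plex mass spectrometry, three biological replicates, mitosis taken 0.5 h after nocodazole release, G1/S directly after double thymidine block.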

Sequence	thermal stability score (HeLa Kyoto [1]; [4])	thermal stability score (HeLa Kyoto [1]; cell cycle stage: mitosis)	solubility change mitosis (log2) (HeLa Kyoto [2])	solubility in G1/S (log2) (HeLa Kyoto [3])
MFHCIPLWRCNRHVESIDKRHCSLVYVPEEIYRYARSLEELLLDANQLRELPEQFFQLVKLRKLGLSDNEIQRLPPEIANFMQLVELDVSRNEIPEIPESISFCKALQVADFSGNPLTRLPESFPELQNLTCLSVNDISLQSLPENIGNLYNLASLELRENLLTYLPDSLTQLRRLEELDLGNNEIYNLPESIGALLHLKDLWLDGNQLSELPQEIGNLKNLLCLDVSENRLERLPEEISGLTSLTDLVISQNLLETIPDGIGKLKKLSILKVDQNRLTQLPEAVGECESLTELVLTENQLLTLPKSIGKLKKLSNLNADRNKLVSLPKEIGGCCSLTVFCVRDNRLTRIPAEVSQATELHVLDVAGNRLLHLPLSLTALKLKALWLSDNQSQPLLTFQTDTDYTTGEKILTCVLLPQLPSEPTCQENLPRCGALENLVNDVSDEAWNERAVNRVSAIRFVEDEKDEEDNETRTLLRRATPHPGELKHMKKTVENLRNDMNAAKGLDSNKNEVNHAIDRVTTSV [LRRC1]	-0.136	-0.881	-0.136	-0.0636
MIDSVKLRRDSAADFFSHYEYLCALQNSVPLPAVRACLREGVLDFNADRLRGVDWAPLLSTLKINKDLPLVSIKSFFQPWLGDTGSDMNKFCRSRVPAIRYKDVTFQLCKALKGCLSISSVLKNLELNGLILRERDLTILAKGLNKSASLVHLSLANCPIGDGGLEIICQGIKSSITLKTVNFTGCNLTWQGADHMAKILKYQTMRRHEETWAESLRYRRPDLDCMAGLRRITLNCNTLIGDLGACAFADSLSEDLWLRALDLQQCGLTNEGAKALLEALETNTTLVVLDIRKNPLIDHSMMKAVIKKVLQNGRSAKSEYQWITSPSVKEPSKTAKQKRRTIILGSGHKGKATIRIGLATKKPVSSGRKHSLGKEYYAPAPLPPGVSGFLPWRTAERAKRHRGFPLIKTRDICNQLQQPGFPVTVTVESPSSSEVEEVDDSSESVHEVPEKTSIEQEALQEKLEECLKQLKEERVIRLKVDKRVSELEHENAQLRNINFSLSEALHAQSLTNMILDDEGVLGSIENSFQKFHAFLDLLKDAGLGQLATMAGIDQSDFQLLGHPQMTSTVSNPPKEEKKALEDEKPEPKQNALGQMQNIQFQKITGDARIPLPLDSFPVPVSTPEGLGTSSNNLGVPATEQRQESFEGFIARMCSPSPDATSGTGSQRKEEELSRNSRSSSEKKTKTESH [CEP78]	2.82	3.49	0.821	0.0898
MKDYDELLKYYELHETIGTGGFAKVKLACHILTGEMVAIKIMDKNTLGSDLPRIKTEIEALKNLRHQHICQLYHVLETANKIFMVLEYCPGGELFDYIISQDRLSEEETRVVFRQIVSAVAYVHSQGYAHRDLKPENLLFDEYHKLKLIDFGLCAKPKGNKDYHLQTCCGSLAYAAPELIQGKSYLGSEADVWSMGILLYVLMCGFLPFDDDNVMALYKKIMRGKYDVPKWLSPSSILLLQQMLQVDPKKRISMKNLLNHPWIMQDYNYPVEWQSKNPFIHLDDDCVTELSVHHRNNRQTMEDLISLWQYDHLTATYLLLLAKKARGKPVRLRLSSFSCGQASATPFTDIKSNNWSLEDVTASDKNYVAGLIDYDWCEDDLSTGAATPRTSQFTKYWTESNGVESKSLTPALCRTPANKLKNKENVYTPKSAVKNEEYFMFPEPKTPVNKNQHKREILTTPNRYTTPSKARNQCLKETPIKIPVNSTGTDKLMTGVISPERRCRSVELDLNQAHMEETPKRKGAKVFGSLERGLDKVITVLTRSKRKGSARDGPRRLKLHYNVTTTRLVNPDQLLNEIMSILPKKHVDFVQKGYTLKCQTQSDFGKVTMQFELEVCQLQKPDVVGIRRQRLKGDAWVYKRLVEDILSSCKV [MELK]	-0.242	0.0849	0.0602	-0.42
MKEEAFLRRRFSLCPPSSTPQKVDPRKLTRNLLLSGDNELYPLSPGKDMEPNGPSLPRDEGPPTPSSATKVPPAEYRLCNGSDKECVSPTARVTKKETLKAQKENYRQEKKRATRQLLSALTDPSVVIMADSLKIRGTLKSWTKLWCVLKPGVLLIYKTPKVGQWVGTVLLHCCELIERPSKKDGFCFKLFHPLDQSVWAVKGPKGESVGSITQPLPSSYLIFRAASESDGRCWLDALELALRCSSLLRLGTCKPGRDGEPGTSPDASPSSLCGLPASATVHPDQDLFPLNGSSLENDAFSDKSERENPEESDTETQDHSRKTESGSDQSETPGAPVRRGTTYVEQVQEELGELGEASQVETVSEENKSLMWTLLKQLRPGMDLSRVVLPTFVLEPRSFLNKLSDYYYHADLLSRAAVEEDAYSRMKLVLRWYLSGFYKKPKGIKKPYNPILGETFRCCWFHPQTDSRTFYIAEQVSHHPPVSAFHVSNRKDGFCISGSITAKSRFYGNSLSALLDGKATLTFLNRAEDYTLTMPYAHCKGILYGTMTLELGGKVTIECAKNNFQAQLEFKLKPFFGGSTSINQISGKITSGEEVLASLSGHWDRDVFIKEEGSGSSALFWTPSGEVRRQRLRQHTVPLEEQTELESERLWQHVTRAISKGDQHRATQEKFALEEAQRQRARERQESLMPWKPQLFHLDPITQEWHYRYEDHSPWDPLKDIAQFEQDGILRTLQQEAVARQTTFLGSPGPRHERSGPDQRLRKASDQPSGHSQATESSGSTPESCPELSDEEQDGDFVPGGESPCPRCRKEARRLQALHEAILSIREAQQELHRHLSAMLSSTARAAQAPTPGLLQSPRSWFLLCVFLACQLFINHILK [OSBPL5]	0.206	0.353	0.12	-0.0107
MKGFKLSCTASNSNRSTPACSPILRKRSRSPTPQNQDGDTMVEKGSDHSSDKSPSTPEQGVQRSCSSQSGRSGGKNSKKSQSWYNVLSPTYKQRNEDFRKLFKQLPDTERLIVDYSCALQRDILLQGRLYLSENWICFYSNIFRWETLLTVRLKDICSMTKEKTARLIPNAIQVCTDSEKHFFTSFGARDRTYMMMFRLWQNALLEKPLCPKELWHFVHQCYGNELGLTSDDEDYVPPDDDFNTMGYCEEIPVEENEVNDSSSKSSIETKPDASPQLPKKSITNSTLTSTGSSEAPVSFDGLPLEEEALEGDGSLEKELAIDNIMGEKIEMIAPVNSPSLDFNDNEDIPTELSDSSDTHDEGEVQAFYEDLSGRQYVNEVFNFSVDKLYDLLFTNSPFQRDFMEQRRFSDIIFHPWKKEENGNQSRVILYTITLTNPLAPKTATVRETQTMYKASQESECYVIDAEVLTHDVPYHDYFYTINRYTLTRVARNKSRLRVSTELRYRKQPWGLVKTFIEKNFWSGLEDYFRHLESELAKTESTYLAEMHRQSPKEKASKTTTVRRRKRPHAHLRVPHLEEVMSPVTTPTDEDVGHRIKHVAGSTQTRHIPEDTPNGFHLQSVSKLLLVISCVICFSLVLLVILNMMLFYKLWMLEYTTQTLTAWQGLRLQERLPQSQTEWAQLLESQQKYHDTELQKWREIIKSSVMLLDQMKDSLINLQNGIRSRDYTSESEEKRNRYH [GRAMD1B]	-0.0752	-0.742	0.151	-0.0228
MLLPWATSAPGLAWGPLVLGLFGLLAASQPQAVPPYASENQTCRDQEKEYYEPQHRICCSRCPPGTYVSAKCSRIRDTVCATCAENSYNEHWNYLTICQLCRPCDPVMGLEEIAPCTSKRKTQCRCQPGMFCAAWALECTHCELLSDCPPGTEAELKDEVGKGNNHCVPCKAGHFQNTSSPSARCQPHTRCENQGLVEAAPGTAQSDTTCKNPLEPLPPEMSGTMLMLAVLLPLAFFLLLATVFSCIWKSHPSLCRKLGSLLKRRPQGEGPNPVAGSWEPPKAHPYFPDLVQPLLPISGDVSPVSTGLPAAPVLEAGVPQQQSPLDLTREPQLEPGEQSQVAHGTNGIHVTGGSMTITGNIYIYNGPVLGGPPGPGDLPATPEPPYPIPEEGDPGPPGLSTPHQEDGKAWHLAETEHCGATPSNRGPRNQFITHD [LTBR]	-2.45	-1.87	0.703	-0.758
MMPSRTNLATGIPSSKVKYSRLSSTDDGYIDLQFKKTPPKIPYKAIALATVLFLIGAFLIIIGSLLLSGYISKGGADRAVPVLIIGILVFLPGFYHLRIAYYASKGYRGYSYDDIPDFDD [TMEM230]	-1.72	-2.3	-0.0463	0.0716
MNKGWLELESDPGLFTLLVEDFGVKGVQVEEIYDLQSKCQGPVYGFIFLFKWIEERRSRRKVSTLVDDTSVIDDDIVNNMFFAHQLIPNSCATHALLSVLLNCSSVDLGPTLSRMKDFTKGFSPESKGYAIGNAPELAKAHNSHARPEPRHLPEKQNGLSAVRTMEAFHFVSYVPITGRLFELDGLKVYPIDHGPWGEDEEWTDKARRVIMERIGLATAGEPYHDIRFNLMAVVPDRRIKYEARLHVLKVNRQTVLEALQQLIRVTQPELIQTHKSQESQLPEESKSASNKSPLVLEANRAPAASEGNHTDGAEEAAGSCAQAPSHSPPNKPKLVVKPPGSSLNGVHPNPTPIVQRLPAFLDNHNYAKSPMQEEEDLAAGVGRSRVPVRPPQQYSDDEDDYEDDEEDDVQNTNSALRYKGKGTGKPGALSGSADGQLSVLQPNTINVLAEKLKESQKDLSIPLSIKTSSGAGSPAVAVPTHSQPSPTPSNESTDTASEIGSAFNSPLRSPIRSANPTRPSSPVTSHISKVLFGEDDSLLRVDCIRYNRAVRDLGPVISTGLLHLAEDGVLSPLALTEGGKGSSPSIRPIQGSQGSSSPVEKEVVEATDSREKTGMVRPGEPLSGEKYSPKELLALLKCVEAEIANYEACLKEEVEKRKKFKIDDQRRTHNYDEFICTFISMLAQEGMLANLVEQNISVRRRQGVSIGRLHKQRKPDRRKRSRPYKAKRQ [BAP1]	0.51	0.853	-0.138	0.152
MNNKFDALKDDDSGDHDQNEENSTQKDGEKEKTERDKNQSSSKRKAVVPGPAEHPLQYNYTFWYSRRTPGRPTSSQSYEQNIKQIGTFASVEQFWRFYSHMVRPGDLTGHSDFHLFKEGIKPMWEDDANKNGGKWIIRLRKGLASRCWENLILAMLGEQFMVGEEICGAVVSVRFQEDIISIWNKTASDQATTARIRDTLRRVLNLPPNTIMEYKTHTDSIKMPGRLGPQRLLFQNLWKPRLNVP [EIF4E2]	-1.02	-0.941	0.000807	0.114
MPSEGRCWETLKALRSSDKGRLCYYRDWLLRREDVLEECMSLPKLSSYSGWVVEHVLPHMQENQPLSETSPSSTSASALDQPSFVPKSPDASSAFSPASPATPNGTKGKDESQHTESMVLQSSRGIKVEGCVRMYELVHRMKGTEGLRLWQEEQERKVQALSEMASEQLKRFDEWKELKQHKEFQDLREVMEKSSREALGHQEKLKAEHRHRAKILNLKLREAEQQRVKQAEQERLRKEEGQIRLRALYALQEEMLQLSQQLDASEQHKALLKVDLAAFQTRGNQLCSLISGIIRASSESSYPTAESQAEAERALREMRDLLMNLGQEITRACEDKRRQDEEEAQVKLQEAQMQQGPEAHKEPPAPSQGPGGKQNEDLQVKVQDITMQWYQQLQDASMQCVLTFEGLTNSKDSQAKKIKMDLQKAATIPVSQISTIAGSKLKEIFDKIHSLLSGKPVQSGGRSVSVTLNPQGLDFVQYKLAEKFVKQGEEEVASHHEAAFPIAVVASGIWELHPRVGDLILAHLHKKCPYSVPFYPTFKEGMALEDYQRMLGYQVKDSKVEQQDNFLKRMSGMIRLYAAIIQLRWPYGNRQEIHPHGLNHGWRWLAQILNMEPLSDVTATLLFDFLEVCGNALMKQYQVQFWKMLILIKEDYFPRIEAITSSGQMGSFIRLKQFLEKCLQHKDIPVPKGFLTSSFWRS [GLE1]	0.568	0.433	0.773	-0.966
